Test results taken from US20060147420A1 (University of Texas, published 2006).
Where no end group is shown, it is not given here.

Target: T1, EGFRvIII (on U-87.ΔEGFRvIII cells) (human, UniProt P00533 25-1210)
T1 construct: whole, on cells; also called de2-7 EGFR; mutant EGFR
Test: flow cytometry, membrane fluorescence staining of cell suspensions with 1 uM FITC-peptide for 30 min

B1: anti-EGFRvIII peptide (PEPCH1)-FITC (peptide)
peptide: HFLIIGFMRRALCGA
modifications: also: FITC label, position not given here
notes: Synthetic peptide after Campa et al., 2000; Used at 1 uM as a FITC conjugate; also called PEPHC1; PEPHC1 ligand
- binding result: binds
